Where no end group is shown, it is not given here.

The target of assay [1] is T1, SPOT peptide 3, HHHSSGMGDYEIF (also: covalently bound to cellulose SPOT membrane).
T1 construct: holds residues of the immunogen's His tag; also called spot 3
T1 peptide: HHHSSGMGDYEIF
The assay can be described thus: SPOT peptide membrane, ECL.

Assay [2] has as its target T2, SPOT peptide 5, SGMGDYEIFDEDT (also: covalently bound to a cellulose SPOT membrane).
T2 construct: also called spot 5
T2 peptide: SGMGDYEIFDEDT
The assay can be described thus: SPOT peptide membrane, ECL.

Assay [3] concerns the target T3, SPOT peptide 8, EIFDEDTKTIRNN
T3 construct: also called spot 8
T3 peptide: EIFDEDTKTIRNN
The assay can be described thus: SPOT peptide membrane, ECL.

The target of assay [4] is T4, SPOT peptide 7, DYEIFDEDTKTIR (also: covalently bound to a cellulose SPOT membrane).
T4 construct: also called spot 7
T4 peptide: DYEIFDEDTKTIR
The experiment in a line: SPOT peptide membrane, ECL.

Assay [5] deals with T5, SPOT peptide 4, HSSGMGDYEIFDE (also: covalently bound to cellulose SPOT membrane).
T5 construct: also called spot 4
T5 peptide: HSSGMGDYEIFDE
The assay can be described thus: SPOT peptide membrane, ECL.

In assay [6] the target is T6, SPOT peptide 6, MGDYEIFDEDTKT (also: covalently bound to a cellulose SPOT membrane).
T6 construct: also called spot 6
T6 peptide: MGDYEIFDEDTKT
The assay can be described thus: SPOT peptide membrane, ECL.

Assay [7] addresses T7, rat Eag1 (rat brain sections, hippocampus and cerebellum) (rat, UniProt Q63472 1-962).
T7 construct: whole, on cells; Native protein in fixed tissue sections (immunohistochemistry)
T7 sequence (looked up): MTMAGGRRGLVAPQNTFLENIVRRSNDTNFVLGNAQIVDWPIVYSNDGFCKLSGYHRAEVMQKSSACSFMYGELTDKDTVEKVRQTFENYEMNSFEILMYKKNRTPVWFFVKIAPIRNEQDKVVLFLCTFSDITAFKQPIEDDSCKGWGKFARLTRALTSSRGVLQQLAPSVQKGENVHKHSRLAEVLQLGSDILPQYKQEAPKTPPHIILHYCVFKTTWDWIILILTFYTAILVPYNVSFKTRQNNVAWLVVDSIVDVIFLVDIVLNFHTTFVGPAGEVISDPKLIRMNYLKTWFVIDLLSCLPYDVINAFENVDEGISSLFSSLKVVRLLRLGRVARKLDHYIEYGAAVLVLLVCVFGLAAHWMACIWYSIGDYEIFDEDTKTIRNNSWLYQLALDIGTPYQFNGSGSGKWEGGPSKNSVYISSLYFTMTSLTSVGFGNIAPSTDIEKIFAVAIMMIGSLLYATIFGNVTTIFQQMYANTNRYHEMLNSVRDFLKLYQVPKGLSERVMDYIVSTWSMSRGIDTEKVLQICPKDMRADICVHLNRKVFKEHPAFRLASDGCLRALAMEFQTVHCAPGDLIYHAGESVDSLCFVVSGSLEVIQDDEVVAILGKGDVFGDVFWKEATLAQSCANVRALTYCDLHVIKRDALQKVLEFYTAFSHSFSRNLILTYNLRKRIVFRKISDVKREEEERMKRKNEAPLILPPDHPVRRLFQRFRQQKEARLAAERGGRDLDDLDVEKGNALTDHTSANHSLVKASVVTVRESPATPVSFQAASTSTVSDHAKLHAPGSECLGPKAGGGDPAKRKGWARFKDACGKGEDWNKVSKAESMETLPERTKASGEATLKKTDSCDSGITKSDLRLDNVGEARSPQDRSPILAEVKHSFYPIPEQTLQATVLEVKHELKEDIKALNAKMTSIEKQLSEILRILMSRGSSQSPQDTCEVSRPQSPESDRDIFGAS
The assay can be described thus: immunohistochemistry on rat brain sections (hippocampus, cerebellum).

Assay [8] concerns the target T8, SPOT peptide 23, GSGSGKWEGGPSK
T8 construct: also called spot 23
T8 peptide: GSGSGKWEGGPSK
The assay can be described thus: SPOT peptide membrane, ECL.

In assay [9] the target is T9, SPOT peptide 21, YQFNGSGSGKWEG
T9 construct: also called spot 21
T9 peptide: YQFNGSGSGKWEG
The experiment in a line: SPOT peptide membrane, ECL.

The target of assay [10] is T10, SPOT peptide 22, FNGSGSGKWEGGP
T10 construct: also called spot 22
T10 peptide: FNGSGSGKWEGGP
The assay can be described thus: SPOT peptide membrane, ECL.

Assay [11] deals with T11, SPOT peptide 24, GSGKWEGGPSKNS
T11 construct: also called spot 24
T11 peptide: GSGKWEGGPSKNS
The assay can be described thus: SPOT peptide membrane, ECL.

In assay [12] the target is Eag1 ion channel expressed in cells (Eag1 overexpressing CHO K1 cells; Eag1-expressing oocytes; transfected HEK293 cells) (UniProt O95259). The experiment in a line: cell-based or functional assay.

B1: mouse monoclonal anti-Eag1 antibody ImAb4 (antibody, mouse IgG2b, kappa, V domains shown)
VH: DVQLQESGPGLVKPSQSLSLTCTVTGYSITSDYAWNWIRQFPGNKLEWMGYISYSGSTIYNPSLKSRISITRDTSKNQFFLQLNSVTTEDTATYYCARFGNYGNTLNYWGQGTSVTVSS
VL: DVVMTQTPLSLPVSLGDQASISCRSSQSLVHSNGNTYLHWYLQKPGQSPKLLIYKVSNRFSGVPDRFSGSGSGTDFTLKISRVEAEDLGVYFCSQSTHVPPTFGGGTKLEIKR
notes: Murine IgG2b / kappa
For B1, the binding result in assay [1], in assay [2], in assay [3], in assay [4], in [5] and in assay [6] was “binds” in each case. The binding result in [7] was “binds”.

B2: mouse monoclonal anti-Eag1 antibody ImAb3 (antibody, mouse IgG2b, kappa, V domains shown)
VH: EVKLVESGGGLVQPGGSLRLSCATSGFTFTDYYMSWVRQPPGKALEWLGFIRNKATGYTTEYSASVKGRFTISRDNSQSILYLQMNTLRAEDSATYYCARDFGSRWYFDVWGAGTTVTVSS
VL: DIVMSQSPSSLAVSAGEKVTMSCKSSQSLLNSRTRKNYLAWYQQKPGQSPKLLIYWASTRESGVPDRFTGSGSGTDFTLTISSVQAEDLAVYYCKQSYDLRTFGGGTKLEIKR
notes: Murine IgG2b / kappa
B2: the binding result in assay [8], in assay [9], in assay [10] and in assay [11] was “binds” in each case. The same molecule displayed a current inhibition, whole cell patch clamp on transfected HEK293 cells, 300 nM antibody in [12] of 35%.
